Experimental data from patent US20040157327A1.

Molecular target: Pablo, full length (pro-apoptotic Bcl-xL binding protein) (human) (UniProt Q92558)
Assay: cell-based or functional assay

UniProt Q92558, sequence (Q92558 whole entry): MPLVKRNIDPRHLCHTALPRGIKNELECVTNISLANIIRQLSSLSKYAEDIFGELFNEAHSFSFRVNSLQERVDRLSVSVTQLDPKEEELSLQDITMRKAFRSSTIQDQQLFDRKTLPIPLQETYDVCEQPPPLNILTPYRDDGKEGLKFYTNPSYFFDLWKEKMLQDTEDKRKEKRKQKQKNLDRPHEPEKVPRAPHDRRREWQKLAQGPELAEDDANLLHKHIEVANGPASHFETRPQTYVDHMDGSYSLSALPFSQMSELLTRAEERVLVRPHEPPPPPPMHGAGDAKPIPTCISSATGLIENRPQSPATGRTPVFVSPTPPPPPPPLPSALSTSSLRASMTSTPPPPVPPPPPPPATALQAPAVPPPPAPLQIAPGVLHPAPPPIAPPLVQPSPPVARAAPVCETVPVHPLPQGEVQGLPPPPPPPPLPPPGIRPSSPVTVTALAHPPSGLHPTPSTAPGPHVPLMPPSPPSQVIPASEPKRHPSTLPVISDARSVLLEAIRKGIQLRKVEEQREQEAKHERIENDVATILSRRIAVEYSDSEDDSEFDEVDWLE

apoptotic nuclei at 48 hours post-transfection/induction (PC12-Pablo cells, Hoechst stain): 3.5%
percentage of PC12 cells that were eGFP+, 48 hours post-transfection/induction: 14%
Substance: Bcl-xL-eGFP (from UniProt Q07817 1-233)
